Assay results taken from the Human Domainome abundance scans (Beltran et al. 2025).
± gives the uncertainty stated by the source.

B1: POU domain, class 3, transcription factor 2, residues 356 to 411; numbered along this chain, P20265 (parent)
chain: KKRTSIEVSVKGALESHFLKCPKPSAQEITSLADSLQLEKEVVRVWFCNRRQKEKR

Variants of: B1
Test: abundance fitness (aPCA) (normalised: wild type 0, dead -1); higher = more abundant; growth selection in yeast, the domain comes from the species named
Conditions: Homo sapiens

| Variant | abundance fitness |
| --- | --- |
| KKRTSIEVSRKGALESHFLKCPKPSAQEITSLADSLQLEKEVVRVWFCNRRQKEKR [V10R] | -0.266 ± 0.09 |
| KKRTSIEVSMKGALESHFLKCPKPSAQEITSLADSLQLEKEVVRVWFCNRRQKEKR [V10M] | -0.134 ± 0.16 |
| KKRTSIEVSLKGALESHFLKCPKPSAQEITSLADSLQLEKEVVRVWFCNRRQKEKR [V10L] | -0.134 ± 0.091 |
| KKRTSIEVSEKGALESHFLKCPKPSAQEITSLADSLQLEKEVVRVWFCNRRQKEKR [V10E] | -0.068 ± 0.13 |
| KKRTSIEVSCKGALESHFLKCPKPSAQEITSLADSLQLEKEVVRVWFCNRRQKEKR [V10C] | -0.294 ± 0.14 |
| KKRTSIEVSPKGALESHFLKCPKPSAQEITSLADSLQLEKEVVRVWFCNRRQKEKR [V10P] | -0.554 ± 0.17 |
| KKRTSIEVSAKGALESHFLKCPKPSAQEITSLADSLQLEKEVVRVWFCNRRQKEKR [V10A] | -0.036 ± 0.08 |
| KKRTSIEVSGKGALESHFLKCPKPSAQEITSLADSLQLEKEVVRVWFCNRRQKEKR [V10G] | -0.318 ± 0.077 |
| KKRTSIEVSTKGALESHFLKCPKPSAQEITSLADSLQLEKEVVRVWFCNRRQKEKR [V10T] | 0.046 ± 0.11 |
| KKRTSIEVSQKGALESHFLKCPKPSAQEITSLADSLQLEKEVVRVWFCNRRQKEKR [V10Q] | -0.13 ± 0.17 |
| KKRTSIEVSIKGALESHFLKCPKPSAQEITSLADSLQLEKEVVRVWFCNRRQKEKR [V10I] | -0.013 ± 0.12 |
| KKRTSIEVSFKGALESHFLKCPKPSAQEITSLADSLQLEKEVVRVWFCNRRQKEKR [V10F] | -0.568 ± 0.21 |
| KKRTSIEVSKKGALESHFLKCPKPSAQEITSLADSLQLEKEVVRVWFCNRRQKEKR [V10K] | 0.041 ± 0.12 |
| KKRTSIEVSWKGALESHFLKCPKPSAQEITSLADSLQLEKEVVRVWFCNRRQKEKR [V10W] | -0.19 ± 0.1 |
| KKRTSIEVSHKGALESHFLKCPKPSAQEITSLADSLQLEKEVVRVWFCNRRQKEKR [V10H] | -0.095 ± 0.24 |
| KKRTSIEPSVKGALESHFLKCPKPSAQEITSLADSLQLEKEVVRVWFCNRRQKEKR [V8P] | 0.119 ± 0.17 |
| KKRTSIEQSVKGALESHFLKCPKPSAQEITSLADSLQLEKEVVRVWFCNRRQKEKR [V8Q] | 0.069 ± 0.13 |
| KKRTSIEMSVKGALESHFLKCPKPSAQEITSLADSLQLEKEVVRVWFCNRRQKEKR [V8M] | 0.046 ± 0.11 |
| KKRTSIENSVKGALESHFLKCPKPSAQEITSLADSLQLEKEVVRVWFCNRRQKEKR [V8N] | 0.212 ± 0.19 |
| KKRTSIESSVKGALESHFLKCPKPSAQEITSLADSLQLEKEVVRVWFCNRRQKEKR [V8S] | 0.096 ± 0.079 |
| KKRTSIEWSVKGALESHFLKCPKPSAQEITSLADSLQLEKEVVRVWFCNRRQKEKR [V8W] | -0.131 ± 0.1 |
| KKRTSIEHSVKGALESHFLKCPKPSAQEITSLADSLQLEKEVVRVWFCNRRQKEKR [V8H] | 0.128 ± 0.15 |
| KKRTSIETSVKGALESHFLKCPKPSAQEITSLADSLQLEKEVVRVWFCNRRQKEKR [V8T] | 0.011 ± 0.11 |
| KKRTSIEISVKGALESHFLKCPKPSAQEITSLADSLQLEKEVVRVWFCNRRQKEKR [V8I] | 0.051 ± 0.1 |

| Variant | abundance fitness |
| --- | --- |
| KKRTSIELSVKGALESHFLKCPKPSAQEITSLADSLQLEKEVVRVWFCNRRQKEKR [V8L] | 0.007 ± 0.09 |
| KKRTSIERSVKGALESHFLKCPKPSAQEITSLADSLQLEKEVVRVWFCNRRQKEKR [V8R] | 0.049 ± 0.094 |
| KKRTSIEVWVKGALESHFLKCPKPSAQEITSLADSLQLEKEVVRVWFCNRRQKEKR [S9W] | 0.004 ± 0.11 |
| KKRTSIEVFVKGALESHFLKCPKPSAQEITSLADSLQLEKEVVRVWFCNRRQKEKR [S9F] | -0.366 ± 0.1 |
| KKRTSIEVIVKGALESHFLKCPKPSAQEITSLADSLQLEKEVVRVWFCNRRQKEKR [S9I] | -0.197 ± 0.17 |
| KKRTSIEVPVKGALESHFLKCPKPSAQEITSLADSLQLEKEVVRVWFCNRRQKEKR [S9P] | -0.041 ± 0.19 |
| KKRTSIEVTVKGALESHFLKCPKPSAQEITSLADSLQLEKEVVRVWFCNRRQKEKR [S9T] | 0.09 ± 0.091 |
| KKRTSIEVHVKGALESHFLKCPKPSAQEITSLADSLQLEKEVVRVWFCNRRQKEKR [S9H] | 0.057 ± 0.24 |
| KKRTSIEVNVKGALESHFLKCPKPSAQEITSLADSLQLEKEVVRVWFCNRRQKEKR [S9N] | -0.198 ± 0.12 |
| KKRTSIEVVVKGALESHFLKCPKPSAQEITSLADSLQLEKEVVRVWFCNRRQKEKR [S9V] | -0.123 ± 0.083 |
| KKRTSIEVRVKGALESHFLKCPKPSAQEITSLADSLQLEKEVVRVWFCNRRQKEKR [S9R] | 0.108 ± 0.1 |
| KKRTSIEVQVKGALESHFLKCPKPSAQEITSLADSLQLEKEVVRVWFCNRRQKEKR [S9Q] | 0.1 ± 0.21 |
| KKRTSIEVEVKGALESHFLKCPKPSAQEITSLADSLQLEKEVVRVWFCNRRQKEKR [S9E] | 0.046 ± 0.12 |
| KKRTSIEVLVKGALESHFLKCPKPSAQEITSLADSLQLEKEVVRVWFCNRRQKEKR [S9L] | -0.153 ± 0.11 |
| KKRTSIEVMVKGALESHFLKCPKPSAQEITSLADSLQLEKEVVRVWFCNRRQKEKR [S9M] | -0.025 ± 0.14 |
| KKRTSIEVYVKGALESHFLKCPKPSAQEITSLADSLQLEKEVVRVWFCNRRQKEKR [S9Y] | -0.267 ± 0.19 |
| KKRTSIEVKVKGALESHFLKCPKPSAQEITSLADSLQLEKEVVRVWFCNRRQKEKR [S9K] | 0.109 ± 0.12 |
| KKRTSIEVGVKGALESHFLKCPKPSAQEITSLADSLQLEKEVVRVWFCNRRQKEKR [S9G] | 0.046 ± 0.074 |
| KKRTSIEVSVCGALESHFLKCPKPSAQEITSLADSLQLEKEVVRVWFCNRRQKEKR [K11C] | -0.264 ± 0.13 |
| KKRTSIEVSVDGALESHFLKCPKPSAQEITSLADSLQLEKEVVRVWFCNRRQKEKR [K11D] | 0.099 ± 0.13 |
| KKRTSIEVSVAGALESHFLKCPKPSAQEITSLADSLQLEKEVVRVWFCNRRQKEKR [K11A] | -0.094 ± 0.091 |
| KKRTSIEVSVEGALESHFLKCPKPSAQEITSLADSLQLEKEVVRVWFCNRRQKEKR [K11E] | 0.038 ± 0.11 |
| KKRTSIEVSVFGALESHFLKCPKPSAQEITSLADSLQLEKEVVRVWFCNRRQKEKR [K11F] | -0.139 ± 0.2 |
